In paper doi:10.1101/725622 (bioRxiv, 2019):

Biological target: V2R-bound βarr1 in HEK-293 cells (V2R: Homo sapiens; βarr1: Rattus …, UniProt P30518;P29066)
Assay: co-IP

B1: Ib30 (HA-tagged intrabody version of Fab30) (scFv, V domains shown)
VH: EVQLVESGGGLVQPGGSLRLSCAASGFNVYSSSIHWVRQAPGKGLEWVASISSYYGYTYYADSVKGRFTISADTSKNTAYLQMNSLRAEDTAVYYCARSRQFWYSGLDYWGQGTLVTVSS
VL: DIQMTQSPSSLSASVGDRVTITCRASQSVSSAVAWYQQKPGKAPKLLIYSASSLYSGVPSRFSGSRSGTDFTLTISSLQPEDFATYYCQQYKYVPVTFGQGTKVEIK
- binding result: binds
